# Test results: publication PMC5390082 (Scientific Reports, 2015)
# B1: Mycobacterium tuberculosis protein tyrosine phosphatase PtpA wt (enzyme)
# chain: MSDPLHVTFVCTGNICRSPMAEKMFAQQLRHRGLGDAVRVTSAGTGNWHVGSCADERAAGVLRAHGYPTDHRAAQVGTEHLAADLLVALDRNHARLLRQLGVEAARVRMLRSFDPRSGTHALDVEDPYYGDHSDFEEVFAVIESALPGLHDWVDERLARNGPS
# Biological target: T1, Trifunctional enzyme (TFP), ECHA/ECHB, immunopurified from human macrophage extract (human (endogenous in THP-1), UniProt P40939 37-763; P55084 34-474)
# T1 construct: also called immunopurified human TFP
# T1 sequence (P40939 37-763, chain 1 of 2): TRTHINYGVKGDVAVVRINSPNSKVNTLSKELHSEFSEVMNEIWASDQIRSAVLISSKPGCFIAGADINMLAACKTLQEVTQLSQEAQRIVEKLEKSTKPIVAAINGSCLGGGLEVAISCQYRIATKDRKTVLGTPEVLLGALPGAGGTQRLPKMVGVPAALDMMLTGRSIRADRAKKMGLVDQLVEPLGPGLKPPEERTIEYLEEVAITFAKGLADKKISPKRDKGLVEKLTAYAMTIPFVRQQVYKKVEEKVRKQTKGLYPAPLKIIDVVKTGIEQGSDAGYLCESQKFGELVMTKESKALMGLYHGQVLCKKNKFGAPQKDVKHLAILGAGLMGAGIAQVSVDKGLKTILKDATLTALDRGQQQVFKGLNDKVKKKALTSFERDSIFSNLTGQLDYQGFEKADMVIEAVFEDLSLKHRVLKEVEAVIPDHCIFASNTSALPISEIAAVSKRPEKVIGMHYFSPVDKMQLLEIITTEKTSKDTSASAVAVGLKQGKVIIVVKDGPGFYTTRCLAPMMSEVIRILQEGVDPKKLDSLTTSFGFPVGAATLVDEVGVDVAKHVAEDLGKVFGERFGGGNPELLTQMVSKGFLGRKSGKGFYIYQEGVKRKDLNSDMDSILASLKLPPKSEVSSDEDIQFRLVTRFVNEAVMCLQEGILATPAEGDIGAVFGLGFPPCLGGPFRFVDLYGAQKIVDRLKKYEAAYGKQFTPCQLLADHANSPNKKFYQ
# T1 sequence (P55084 34-474, chain 2 of 2): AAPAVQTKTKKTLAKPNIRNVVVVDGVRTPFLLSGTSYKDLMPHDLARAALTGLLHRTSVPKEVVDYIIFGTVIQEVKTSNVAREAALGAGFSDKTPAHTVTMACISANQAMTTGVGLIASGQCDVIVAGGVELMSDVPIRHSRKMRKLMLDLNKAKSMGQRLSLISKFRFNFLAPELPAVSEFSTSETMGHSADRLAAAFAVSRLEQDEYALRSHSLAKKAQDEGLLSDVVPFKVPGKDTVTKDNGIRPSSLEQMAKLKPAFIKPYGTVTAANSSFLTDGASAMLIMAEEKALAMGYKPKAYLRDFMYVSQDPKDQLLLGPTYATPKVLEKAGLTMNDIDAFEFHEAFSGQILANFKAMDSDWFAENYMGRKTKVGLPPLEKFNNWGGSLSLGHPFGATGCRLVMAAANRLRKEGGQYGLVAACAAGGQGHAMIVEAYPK
# Assay: SPR; Biacore 3000; […]; 20 mM Tris-HCl pH 8.0, 50 mM NaCl, 5 mM EDTA, 0.005% P20, 1 mM DTT; […]
# Settings: both partners purified
binder,measurement,value
B1,binding result,binds
